Experimental data: patent publication US20160251438A1
Values belong to the binder of their own block, whether it stands above or below them.

Experiments:
[1] = biological target: GARP / TGF-β1 Y336Q complex (human) (UniProt Q14392); assay: flow cytometry titration on transfected 293T cells; grade of Reduced avidity read by footnote 3
[2] = biological target: GARP / TGF-β1 Y336Q complex (human) (UniProt Q14392); assay: flow cytometry on transfected 293T cells, 5 ug/ml; grade of Loss of binding read by footnote 2
[3] = biological target: GARP / TGF-β1 Y336Q complex (human) (UniProt Q14392); assay: FACS titration on transfected 293T; EC50 mutant / EC50 WT [cont.) B]
[4] = biological target: GARP / TGF-β1 Y336Q complex (human) (UniProt Q14392); assay: FACS titration on transfected 293T; EC50 mutant / EC50 WT

GARP / TGF-β1 Y336Q complex (human), sequence (Q14392 20-662, chain 1 of 2): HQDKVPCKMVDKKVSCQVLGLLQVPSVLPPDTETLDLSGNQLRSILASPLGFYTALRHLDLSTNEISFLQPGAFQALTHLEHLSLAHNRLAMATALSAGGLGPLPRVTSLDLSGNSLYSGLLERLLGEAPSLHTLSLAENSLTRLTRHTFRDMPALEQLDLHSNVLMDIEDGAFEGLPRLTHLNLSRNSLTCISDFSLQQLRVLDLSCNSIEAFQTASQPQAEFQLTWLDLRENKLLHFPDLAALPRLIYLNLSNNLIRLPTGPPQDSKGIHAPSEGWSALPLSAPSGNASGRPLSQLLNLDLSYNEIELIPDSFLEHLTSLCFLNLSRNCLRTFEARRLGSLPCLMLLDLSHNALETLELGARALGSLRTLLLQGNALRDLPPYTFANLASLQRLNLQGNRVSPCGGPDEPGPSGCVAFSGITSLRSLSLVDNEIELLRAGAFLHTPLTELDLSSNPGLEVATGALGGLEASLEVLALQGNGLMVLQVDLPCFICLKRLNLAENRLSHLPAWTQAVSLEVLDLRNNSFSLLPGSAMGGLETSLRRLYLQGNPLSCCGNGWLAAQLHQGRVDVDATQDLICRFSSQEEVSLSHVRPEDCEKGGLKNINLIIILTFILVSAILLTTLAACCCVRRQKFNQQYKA
GARP / TGF-β1 Y336Q complex (human), sequence (P01137 30-390 Y336Q, chain 2 of 2, further chain): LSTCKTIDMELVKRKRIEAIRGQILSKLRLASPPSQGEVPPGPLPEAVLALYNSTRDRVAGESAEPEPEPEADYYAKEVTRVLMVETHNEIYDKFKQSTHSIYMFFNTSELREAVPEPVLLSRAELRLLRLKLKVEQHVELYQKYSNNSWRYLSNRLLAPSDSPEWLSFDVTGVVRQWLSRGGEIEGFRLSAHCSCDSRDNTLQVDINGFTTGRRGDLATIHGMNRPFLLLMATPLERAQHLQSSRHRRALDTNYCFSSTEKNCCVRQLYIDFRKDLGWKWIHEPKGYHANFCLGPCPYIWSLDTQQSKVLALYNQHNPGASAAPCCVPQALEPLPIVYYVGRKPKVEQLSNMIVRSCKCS

ratio of EC50 (mutant vs WT) [1]: < 2 | residual binding on mutant by comparison to WT [2]: > 50% | Ratio of EC50 (mutant / wt) [3]: 1.1
B1: LHG-10 (antibody, human IgG1, V domains shown)
VH: EVQLVQPGAELRNSGASVKVSCKASGYRFTSYYIDWVRQAPGQGLEWMGRIDPEDGGTKYAQKFQGRVTFTADTSTSTAYVELSSLRSEDTAVYYCARNEWETVVVGDLMYEYEYWGQGTQVTVSS
VL: DIQMTQSPTSLSASLGDRVTITCQASQSISSYLAWYQQKPGQAPKLLIYGASRLQTGVPSRFSGSGSGTSFTLTISGLEAEDAGTYYCQQYDSLPVTFGQGTKVELK

residual binding on mutant by comparison to WT [2]: > 50% | Ratio of EC50 (mutant / wt) [4]: 0.9
B2: MHGARP8 (antibody, V domains shown)
VH: QVQLKESGPGLVAPSQSLSITCTVSGFSLTGYGINWVRQPPGKGLEWLGMIWSDGSTDYNSVLTSRLRISKDNSNSQVFLKMNSLQVDDTARYYCARDRNYYDYDGAMDYWGQGTSVTVSS
VL: DIQVTQSSSYLSVSLGDRVTITCKASDHIKNWLAWYQQKPGIAPRLLVSGATSLEAGVPSRFSGSGSGKNFTLSITSLQTEDVATYYCQQYWSTPWTFGGGTTLEIR
